Measurements from the supplement of paper PMC7877785.
± gives the uncertainty stated by the source.

Assay: self-splicing fitness, log relative to wild type (ln ratio); higher = more splicing; Tetrahymena group I intron in knt gene, E. coli kanamycin selection, DiMSum; sequences stand for … in CUCUCU…GGAGGGAAAAGUUAUCAGGCAUGCACCUGGUAGCUAGUCUUUAAACCAAUAGAUUGCAUCGGUUUAAAAGGCAAGACCGUCAAAUUGCGGGAAAGGGGUCAACAGCCGUUCAGUACCAAGUCUCAGGGGAAACUUUGAGAUGGCCUUGCAAAGGGUAUGGUAAUAAGCUGACGGACAUGGUCCUAACCACGCAGCCAAGUCCUAAGUCAACAGAUCUUCUGUUGAUAUGGAUGCAGUUCACAGACUAAAUGUCGGUCGGGGAAGAUGUAUUCUUCUCAUAAGAUAUAGUCGGACCUCUCCUUAAUGGGAGCUAGCGGAUGAAGUGAUGCAACACUGGAGCCGCUGGGAACUAAUUUGUAUGCGAAAGUAUAUUGAUUAGUUUUGGAGUACUCGUGGUCG
Procedure, shortened: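 DiMSum derived fitness as the error-weighted combination of fold changes across replicates, kanamycin versus no kanamycin, normalised to wild type. E. coli BL21(DE3) held the library, which randomised all eight P1ex-region intron nucleotides within the knt kanamycin-resistance gene on pET-22b(+). Six replicate transformations grew overnight at 37°C or 30°C on LB agar with or without 25 μg/mL kanamycin, also containing 100 μg/mL carbenicillin, 50 μM IPTG and 0.2% rhamnose, and pooled colonies were amplicon-sequenced on an Illumina HiSeq 2500.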

Row | Sequence | self-splicing fitness (ln) (30 °C) | self-splicing fitness (ln) (37 °C)
1 | UGGCAGCAAUAUUACGGUUA | -0.000429 ± 0.076 | 0.0782 ± 0.092
2 | UGGCAGCAAUAUUACGGUUC | -2.14 ± 0.2 | -0.624 ± 0.19
3 | UGGCAGCAAUAUUACGUAAG | -0.674 ± 0.049 | 0.00441 ± 0.073
4 | UGGCAGCAAUAUUACGUACU | 0.384 ± 0.091 | 0.181 ± 0.12
5 | UGGCAGCAAUAUUACGUAGC | -4.18 ± 0.29 | -2.28 ± 0.19
6 | UGGCAGCAAUAUUACGUAGU | -2.99 ± 0.15 | -1.8 ± 0.2
7 | UGGCAGCAAUAUUACGUCGC | -3.89 ± 0.31 | -2.95 ± 0.43
8 | UGGCAGCAAUAUUACGUGAA | -0.78 ± 0.058 | -0.431 ± 0.084
9 | UGGCAGCAAUAUUACGUGAG | -0.544 ± 0.047 | 0.438 ± 0.077
10 | UGGCAGCAAUAUUACGUUUG | -0.921 ± 0.06 | -0.496 ± 0.089
11 | UGGGAGCAAUAUUACGAACU | -0.981 ± 0.1 | -1.42 ± 0.19
12 | UGGGAGCAAUAUUACGAAGG |  | -1.1 ± 0.41
13 | UGGGAGCAAUAUUACGACGA |  | -0.296 ± 0.36
14 | UGGGAGCAAUAUUACGAGCG | -1.56 ± 0.14 | -0.816 ± 0.15
15 | UGGGAGCAAUAUUACGAUCA | -0.66 ± 0.22 | -0.124 ± 0.19
16 | UGGGAGCAAUAUUACGAUCG | -1.33 ± 0.13 | -0.561 ± 0.15
17 | UGGGAGCAAUAUUACGCACA | -0.967 ± 0.35 | 0.399 ± 0.35
18 | UGGGAGCAAUAUUACGCAGA | -1.08 ± 0.48 | -3 ± 0.35
19 | UGGGAGCAAUAUUACGCAGC |  | -3.01 ± 0.49
20 | UGGGAGCAAUAUUACGCGCA | -1.66 ± 0.15 | -1.16 ± 0.19
21 | UGGGAGCAAUAUUACGCUCA |  | -2.72 ± 0.28

Row | Sequence | self-splicing fitness (ln) (30 °C) | self-splicing fitness (ln) (37 °C)
22 | UGGGAGCAAUAUUACGGAAU |  | -1.69 ± 0.48
23 | UGGGAGCAAUAUUACGGACU | -1.17 ± 0.36 | -2.35 ± 0.46
24 | UGGGAGCAAUAUUACGGCGU |  | -0.706 ± 0.28
25 | UGGGAGCAAUAUUACGUAGG | -3.24 ± 0.31 | -1.93 ± 0.32
26 | UGGGAGCAAUAUUACGUCCU |  | -1.3 ± 0.26
27 | UGGGAGCAAUAUUACGUGUA |  | -2.2 ± 0.26
28 | UGGGAGCAAUAUUACGUUGC | -3.43 ± 0.4 | -1.53 ± 0.23
29 | UGGUAGCAAUAUUACGAACA | -0.325 ± 0.15 | 0.205 ± 0.27
30 | UGGUAGCAAUAUUACGAGAG | -3.55 ± 0.28 | -2.16 ± 0.21
31 | UGGUAGCAAUAUUACGAGUG | -1.17 ± 0.13 | -0.313 ± 0.16
32 | UGGUAGCAAUAUUACGAUAU | -2.62 ± 0.16 | -1.62 ± 0.16
33 | UGGUAGCAAUAUUACGCCCU | -0.668 ± 0.16 | 0.287 ± 0.16
34 | UGGUAGCAAUAUUACGCGAU | -2.54 ± 0.28 | -0.974 ± 0.26
35 | UGGUAGCAAUAUUACGCUUC | -2.63 ± 0.29 | -0.643 ± 0.35
36 | UGGUAGCAAUAUUACGGCUU | 0.166 ± 0.18 | -0.0657 ± 0.2
37 | UGGUAGCAAUAUUACGGUGC | -2.31 ± 0.34 | 
38 | UGGUAGCAAUAUUACGGUUC | -3.54 ± 0.46 | -3.1 ± 0.47
39 | UGGUAGCAAUAUUACGGUUU | -2.64 ± 0.17 | -2.6 ± 0.23
40 | UGGUAGCAAUAUUACGUCCG | -0.727 ± 0.15 | -0.449 ± 0.24
41 | UGUAAGCAAUAUUACGAACA | -0.358 ± 0.14 | 0.219 ± 0.17
42 | UGUAAGCAAUAUUACGAAGA |  | -0.905 ± 0.37
